Experimental data as given in publication PMC7401801.

Target: CRM1 (UniProt O14980)
Test: GFP IP of CRM1-EGFP, Flag blot
Details: reference: Flag-TFEB wild type; sites S142

Substance: TFEB (from UniProt P19484) Flag-TFEB(S142A)
- binding against the reference: weaker
